# Data taken from patent US20250320281A1.
# B1: PGT-136 (5329_C19; 5366_P21) human monoclonal anti-HIV-1 antibody (antibody, V domains shown)
# VH: QLQLQESGPGLVKPSETLSLTCTVSGGSMRGTDWGENDFHYGWIRQSSAKGLEWIGSIHWRGRTTHYKTSFRSRATLSIDTSNNRFSLTFSFVTAADTAVYYCARHKYHDIFRVVPVAGWFDPWGQGLLVTVSS
# VL: EIVMTQSPPTLSVSPGETATLSCRASQNVKNNLAWYQLKPGQAPRLLIFDASSRAGGIPDRFSGSGYGTDFTLTVNSVQSEDFGDYFCQQYEEWPRTFGQGTKVDIK
# Key:
# Test in all cases: cell-based or functional assay
# [1] = biological target: HIV-1 93IN905 envelope glycoprotein (Env) on pseudovirus (HIV-1)
# [2] = biological target: HIV-1 JRFL envelope glycoprotein (Env) on pseudovirus (HIV-1)
# [3] = biological target: HIV-1 MGRM-AG-005 envelope glycoprotein (Env) on pseudovirus (HIV-1)
# [4] = biological target: HIV-1 MGRM-A-010 envelope glycoprotein (Env) on pseudovirus (HIV-1)
# [5] = biological target: HIV-1 JRCSF envelope glycoprotein (Env) on pseudovirus (HIV-1) (UniProt P20871)
# [6] = biological target: HIV-1 92TH021 envelope glycoprotein (Env) on pseudovirus (HIV-1)
# [7] = biological target: HIV-1 MGRM-D-001 envelope glycoprotein (Env) on pseudovirus (HIV-1)
# [8] = biological target: HIV-1 93UG077 envelope glycoprotein (Env) on pseudovirus (HIV-1)
# [9] = biological target: HIV-1 92UG005 envelope glycoprotein (Env) on pseudovirus (HIV-1)
# [10] = biological target: HIV-1 CMU02 envelope glycoprotein (Env) on pseudovirus (HIV-1)
# [11] = biological target: HIV-1 MGRM-C-027 envelope glycoprotein (Env) on pseudovirus (HIV-1)
# [12] = biological target: HIV-1 MGRM-D-018 envelope glycoprotein (Env) on pseudovirus (HIV-1)
# [13] = biological target: HIV-1 94UG103 envelope glycoprotein (Env) on pseudovirus (HIV-1)
# [14] = biological target: HIV-1 92BR020 envelope glycoprotein (Env) on pseudovirus (HIV-1)
# [15] = biological target: HIV-1 92RW020 envelope glycoprotein (Env) on pseudovirus (HIV-1)
# [16] = biological target: aMLV envelope on pseudovirus (negative control virus)
# [17] = biological target: HIV-1 APV13 envelope glycoprotein (Env) on pseudovirus (HIV-1)
# [18] = biological target: HIV-1 APV6 envelope glycoprotein (Env) on pseudovirus (HIV-1)
# [19] = biological target: HIV-1 92UG024 envelope glycoprotein (Env) on pseudovirus (HIV-1)
# [20] = biological target: HIV-1 MGRM-C-026 envelope glycoprotein (Env) on pseudovirus (HIV-1)
# [21] = biological target: HIV-1 APV17 envelope glycoprotein (Env) on pseudovirus (HIV-1)
# [22] = biological target: HIV-1 NL43 envelope glycoprotein (Env) on pseudovirus (HIV-1)
# [23] = biological target: HIV-1 MGRM-C-028 envelope glycoprotein (Env) on pseudovirus (HIV-1)
binder,measurement,setting,value
B1,neutralization IC50,[1],0.0135 µg/mL
same,neutralization IC80,[1],0.0623 µg/mL
same,neutralization IC90,[1],0.156 µg/mL
same,neutralization IC95,[1],0.379 µg/mL
same,neutralization IC50,[2],> 10 µg/mL
same,neutralization IC80,[2],> 10 µg/mL
same,neutralization IC90,[2],> 10 µg/mL
same,neutralization IC95,[2],> 10 µg/mL
same,neutralization IC50,[3],> 10 µg/mL
same,neutralization IC80,[3],> 10 µg/mL
same,neutralization IC90,[3],> 10 µg/mL
same,neutralization IC95,[3],> 10 µg/mL
same,neutralization IC50,[4],> 10 µg/mL
same,neutralization IC80,[4],> 10 µg/mL
same,neutralization IC90,[4],> 10 µg/mL
same,neutralization IC95,[4],> 10 µg/mL
same,neutralization IC50,[5],> 10 µg/mL
same,neutralization IC80,[5],> 10 µg/mL
same,neutralization IC90,[5],> 10 µg/mL
same,neutralization IC95,[5],> 10 µg/mL
same,neutralization IC50,[6],> 10 µg/mL
same,neutralization IC80,[6],> 10 µg/mL
same,neutralization IC90,[6],> 10 µg/mL
same,neutralization IC95,[6],> 10 µg/mL
same,neutralization IC50,[7],> 10 µg/mL
same,neutralization IC80,[7],> 10 µg/mL
same,neutralization IC90,[7],> 10 µg/mL
same,neutralization IC95,[7],> 10 µg/mL
same,neutralization IC50,[8],> 10 µg/mL
same,neutralization IC80,[8],> 10 µg/mL
same,neutralization IC90,[8],> 10 µg/mL
same,neutralization IC95,[8],> 10 µg/mL
same,neutralization IC50,[9],> 10 µg/mL
same,neutralization IC80,[9],> 10 µg/mL
same,neutralization IC90,[9],> 10 µg/mL
same,neutralization IC95,[9],> 10 µg/mL
same,neutralization IC50,[10],> 10 µg/mL
same,neutralization IC80,[10],> 10 µg/mL
same,neutralization IC90,[10],> 10 µg/mL
same,neutralization IC95,[10],> 10 µg/mL
same,neutralization IC50,[11],> 10 µg/mL
same,neutralization IC80,[11],> 10 µg/mL
same,neutralization IC90,[11],> 10 µg/mL
same,neutralization IC95,[11],> 10 µg/mL
same,neutralization IC50,[12],> 10 µg/mL
same,neutralization IC80,[12],> 10 µg/mL
same,neutralization IC90,[12],> 10 µg/mL
same,neutralization IC95,[12],> 10 µg/mL
same,neutralization IC50,[13],> 10 µg/mL
same,neutralization IC80,[13],> 10 µg/mL
same,neutralization IC90,[13],> 10 µg/mL
same,neutralization IC95,[13],> 10 µg/mL
same,neutralization IC50,[14],> 10 µg/mL
same,neutralization IC80,[14],> 10 µg/mL
same,neutralization IC90,[14],> 10 µg/mL
same,neutralization IC95,[14],> 10 µg/mL
same,neutralization IC50,[15],0.738 µg/mL
same,neutralization IC80,[15],> 10 µg/mL
same,neutralization IC90,[15],> 10 µg/mL
same,neutralization IC95,[15],> 10 µg/mL
same,neutralization IC50,[16],> 10 µg/mL
same,neutralization IC80,[16],> 10 µg/mL
same,neutralization IC90,[16],> 10 µg/mL
same,neutralization IC95,[16],> 10 µg/mL
same,neutralization IC50,[17],> 10 µg/mL
same,neutralization IC80,[17],> 10 µg/mL
same,neutralization IC90,[17],> 10 µg/mL
same,neutralization IC95,[17],> 10 µg/mL
same,neutralization IC50,[18],> 10 µg/mL
same,neutralization IC80,[18],> 10 µg/mL
same,neutralization IC90,[18],> 10 µg/mL
same,neutralization IC95,[18],> 10 µg/mL
same,neutralization IC50,[19],0.0915 µg/mL
same,neutralization IC80,[19],0.619 µg/mL
same,neutralization IC90,[19],1.96 µg/mL
same,neutralization IC95,[19],5.97 µg/mL
same,neutralization IC50,[20],0.0065 µg/mL
same,neutralization IC80,[20],0.0285 µg/mL
same,neutralization IC90,[20],0.0687 µg/mL
same,neutralization IC95,[20],0.159 µg/mL
same,neutralization IC50,[21],> 10 µg/mL
same,neutralization IC80,[21],> 10 µg/mL
same,neutralization IC90,[21],> 10 µg/mL
same,neutralization IC95,[21],> 10 µg/mL
same,neutralization IC50,[22],> 10 µg/mL
same,neutralization IC80,[22],> 10 µg/mL
same,neutralization IC90,[22],> 10 µg/mL
same,neutralization IC95,[22],> 10 µg/mL
same,neutralization IC50,[23],> 10 µg/mL
same,neutralization IC80,[23],> 10 µg/mL
same,neutralization IC90,[23],> 10 µg/mL
same,neutralization IC95,[23],> 10 µg/mL
